Measured values published in article PMC2777437.

Legend:
[1] = biological target: T1, RHD-CBFb complex (UniProt Q01196;Q13951 50-178;1-141); assay: fluorescence anisotropy
[2] = biological target: T1, RHD-CBFb complex; assay: fluorescence anisotropy; remark: listed apart in the source

T1 sequence (Q01196 50-178, chain 1 of 2): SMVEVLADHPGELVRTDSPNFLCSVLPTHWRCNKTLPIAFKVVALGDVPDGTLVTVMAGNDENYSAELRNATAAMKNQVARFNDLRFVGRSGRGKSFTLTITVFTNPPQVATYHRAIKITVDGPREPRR
T1 sequence (Q13951 1-141, chain 2 of 2): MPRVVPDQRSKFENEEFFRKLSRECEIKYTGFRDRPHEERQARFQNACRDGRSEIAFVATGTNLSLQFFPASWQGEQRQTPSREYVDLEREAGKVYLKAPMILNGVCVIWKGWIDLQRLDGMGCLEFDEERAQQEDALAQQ

Binder | Kd [1] | binding result [2]
GGUCCAGGCGCGUUAGCAAAACCGCGGAUC (structured_RNA, none) [Apt45A] | 162 ± 102 nM | 
AUUACCGGCGAGUUUUGAACCGCGUAAU (structured_RNA, none) [Apt28A] | 108 ± 34 nM | 
ATTACCGGCGAGTTTTGAACCGCGTAAT (ssDNA) [DNA Apt28A] |  | no binding
